# Data as given in patent publication US7863432B2, “Nucleic acid molecules encoding AKAP18 delta, a splice variant of a protein kinase A anchor protein” (Forschungsverbund Berlin e.V., priority 2002, dated 2011).
# Molecular target: T1, interaction between AKAP18δ and RIIα (Homo sapiens, UniProt P13861)
# T1 construct: expressed in transfected cells; host or cells: HEK293
# Experiment: FRET measurement of AKAP18δ-CFP / RIIα-YFP interaction in co-transfected HEK293 cells
# Type: cell-based
# Settings: 100 μM
# Method: The interaction of the expressed fusion proteins AKAP18δ-CFP and RIIα-YFP was measured in the HEK293 cells using the fluorescence resonance energy transfer (FRET) technology (schematic diagram in FIG. 3). The FRET signals result from an energy transfer from CFP to YFP, which is only possible when the two proteins are in close proximity to each other (<10 nm). Such close proximity of CFP and YFP is achieved only when AKAP186 directly binds the RIIα subunit. In this event, a FRET can be detected. […] A continuous decrease of the FRET signal during measurement indicates inhibition of the interaction between AKAP18δ and RIIα.
# HEK293 cells (GBF, Brunswick) were cultured on polylysine-coated 30 mm cover glasses with 10% fetal calf serum (FCS) in Dulbecco's Minimal Eagle medium (DMEM) until a confluence of 40-60% was reached. […]
# HEK293 cells were transiently co-transfected with the plasmids encoding RIIα-YFP and AKAP18δ-CFP. […] Fluorescence was excited at a wavelength of 425 nm for CFP and 488 nm for YFP. The emitted fluorescence was measured at a wavelength of 480/30 nm for CFP and 535/26 nm for YFP. The FRET of CFP to YFP was determined by excitation of CFP at a wavelength of 425 nm and measurement of the emission of YFP at a wavelength of 535/26 nm. Non-specific background fluorescence was determined in a region with no cells and subtracted. […]
# T1 sequence (P13861 whole entry): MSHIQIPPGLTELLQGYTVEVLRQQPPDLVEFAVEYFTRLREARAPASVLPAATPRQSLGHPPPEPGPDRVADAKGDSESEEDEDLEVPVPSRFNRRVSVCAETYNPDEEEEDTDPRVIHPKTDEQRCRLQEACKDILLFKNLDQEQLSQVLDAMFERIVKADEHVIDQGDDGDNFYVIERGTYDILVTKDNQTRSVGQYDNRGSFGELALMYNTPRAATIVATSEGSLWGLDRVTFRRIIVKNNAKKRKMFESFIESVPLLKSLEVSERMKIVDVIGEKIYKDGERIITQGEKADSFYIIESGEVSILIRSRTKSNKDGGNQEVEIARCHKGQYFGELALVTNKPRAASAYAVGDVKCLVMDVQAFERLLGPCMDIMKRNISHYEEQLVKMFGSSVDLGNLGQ
substance,measurement,setting,value
"S-Ht31: membrane-permeable peptide; sequence of the RII binding domain of AKAP Ht31, coupled to a stearate residue on the N terminus",mean value of the 535/480 ratio after addition of peptide,"HEK293 cells, ratio >0.6 taken as positive FRET signal",about 0.35
same,decrease of the 535/480 nm ratio (FRET signal),"within 80 min, HEK293 cells co-expressing AKAP18δ-CFP and RIIα-YFP, ratio before addition about 1.3",more than 50%
